Measurements as given in patent publication US20090221027A1 (BASF AG, priority 2005, published 2009).
Where two headings read alike, the source gives them in different places.

B1: Bsu MetI: Bacillus subtilis O-acetyl-homoserine sulfhydrylase with cystathionine-gamma-synthase activity, SEQ ID NO:2 (protein)
chain: MSQHVETKLAQIGNRSDEVTGTVSAPIYLSTAYRHRGIGESTGFDYVRTKNPTRQLVEDAIANLENGARGLAFSSGMAAIQTIMALFKSGDELIVSSDLYGGTYRLFENEWKKYGLTFHYDDFSDEDCLRSKITPNTKAVFVETPTNPLMQEADIEHIARITKEHGLLLIVDNTFYTPVLQRPLELGADIVIHSATKYLGGHNDLLAGLVVVKDERLGEEMFQHQNAIGAVLPPFDSWLLMRGMKTLSLRMRQHQANAQELAAFLEEQEEISDVLYPGKGGMLSFRLQKEEWVNPFLKALKTICFAESLGGVESFITYPATQTHMDIPEEIRIANGVCNRLLRFSVGIEHAEDLKEDLKQALCQVKEGAVSFE
B2: Cg1 MetY: C. glutamicum O-acetylhomoserine sulfhydrylase (protein, UniProt Q79VI4 1-437, looked up)
O-acetyl-L-homoserine …: MPKYDNSNADQWGFETRSIHAGQSVDAQTSARNLPIYQSTAFVFDSAEHAKQRFALEDLGPVYSRLTNPTVEALENRIASLEGGVHAVAFSSGQAATTNAILNLAGAGDHIVTSPRLYGGTETLFLITLNRLGIDVSFVENPDDPESWQAAVQPNTKAFFGETFANPQADVLDIPAVAEVAHRNSVPLIIDNTIATAALVRPLELGADVVVASLTKFYTGNGSGLGGVLIDGGKFDWTVEKDGKPVFPYFVTPDAAYHGLKYADLGAPAFGLKVRVGLLRDTGSTLSAFNAWAAVQGIDTLSLRLERHNENAIKVAEFLNNHEKVEKVNFAGLKDSPWYATKEKLGLKYTGSVLTFEIKGGKDEAWAFIDALKLHSNLANIGDVRSLVVHPATTTHSQSDEAGLARAGVTQSTVRLSVGIETIDDIIADLEGGFAAI

Experiments:
[1] = molecular target: C. glutamicum MetY enzyme (Corynebacterium glutamicum, UniProt Q79VI4); assay: biochemical
[2] = reported specific activity; Bsu MetI from T7 promoter in E. coli; cited from earlier work
[3] = Cystathionine γ-synthase activity in crude cell extracts; assay type: biochemical
[4] = Inhibition of the enzyme by methionine (Table 1); assay type: biochemical
[5] = reported specific activity; Bsu MetI from T7 promoter in E. coli; cited from earlier work; remark: listed apart in the source
[6] = O-acetyl-homoserine sulfhydrylase activity in crude cell extracts; assay type: biochemical
[7] = H.-S. Lee, personal communication; cited from earlier work
[8] = in C. glutamicum from P15, crude extracts
[9] = in E. coli from P15, crude extracts

Inhibition by methionine [4, 8] | Inhibition by methionine [4, 9] | Molecule | IC50 [1] [mM] | Cystathionine γ-synthase activity [2] [µmol/min/mg] | Cystathionine γ-synthase activity [3, 8] [nmol/min] | Cystathionine γ-synthase activity [3, 9] [nmol/min] | O-Ac-Hse sulfhydrylase activity [5] [µmol/min/mg] | O-Ac-Hse sulfhydrylase activity [6, 8] [nmol/min] | O-Ac-Hse sulfhydrylase activity [6, 9] [nmol/min] | Inhibition by methionine [7]
 |  | CSCC[C@H](N)C(=O)O [methionine, L-methionine] | ~5 |  |  |  |  |  |  | 
No | No | B1 |  | 1.5 | 30.2 | 1900 | 7.0 | 6.3 | 199 | 
 |  | B2 |  |  |  |  | 6.0 |  |  | Yes
